Assay results as given in patent US6653460B1 (priority 1996, dated 2003).
Where “and” joins values, the source holds several entries; their conditions need not be identical. Identical values can stand only once. Like-named read-outs stand apart in the source and are kept apart here.

Legend:
[1] = molecular target: T1, N-type calcium channels (IMR-32 neuroblastoma cells) (Homo sapiens, UniProt Q00975); assay: cell-based
T1 construct: host or cells: IMR-32 (differentiated)

[2] = molecular target: class A (P/Q) calcium channels (Oryctolagus cuniculus, UniProt P27884); assay: Two-electrode voltage clamp of barium currents in Xenopus oocytes expressing class A alpha-1 subunits; details: 4 mM barium
Protocol: In these experiments, barium currents (4 mM barium, no added calcium, in medium) through the calcium channels were measured for technical reasons, in accordance with methods known in the art.
The cRNA for the alpha-1 subunit described in Mori et al. (1991) was expressed in Xenopus oocytes by standard methods (Goldin, 1992). For expression, cRNA for the alpha-1 subunit was co-injected with cRNA for the rabbit alpha2 and delta (Ellis et al. 1988) and human beta (Williams et al. 1992) subunits in equimolar ratios. Approximately 50 nL was injected per oocyte, with a total cRNA concentration of 0.8 μg/μL.
Currents were recorded, by two-electrode voltage clamp using a solution of 4 mM barium chloride, 38 mM potassium chloride, 36 mM tetraethylammonium chloride, 5 mM 4-aminopyridine, 0.4 mM niflumic acid, 5 mM HEPES (pH 7.5), and 0.1 mg/mL bovine serum albumin. Data were sampled at 5 kHz and filtered at 1 kHz utilizing a OC-725B voltage-clamp amplifier. (Warner Instruments) interfaced to PCLAMP software (Axon Instruments, Foster City, Calif.) for acquisition and analysis. Leak and capacitance currents were subtracted on-line using a P/4 protocol. Voltage pulses to 0 mV from a holding potential of −80 mV were used to elicit currents every 10 s.

[3] = molecular target: class B voltage-gated calcium channel (human alpha-1B subunit) stably expressed in S3 cells (HEK 293) (human) (UniProt Q00975); assay: cell-based or functional assay
Chain of class B voltage-gated calcium channel (human alpha-1B subunit) stably expressed in S3 cells (HEK 293) (human) (Q00975 whole entry): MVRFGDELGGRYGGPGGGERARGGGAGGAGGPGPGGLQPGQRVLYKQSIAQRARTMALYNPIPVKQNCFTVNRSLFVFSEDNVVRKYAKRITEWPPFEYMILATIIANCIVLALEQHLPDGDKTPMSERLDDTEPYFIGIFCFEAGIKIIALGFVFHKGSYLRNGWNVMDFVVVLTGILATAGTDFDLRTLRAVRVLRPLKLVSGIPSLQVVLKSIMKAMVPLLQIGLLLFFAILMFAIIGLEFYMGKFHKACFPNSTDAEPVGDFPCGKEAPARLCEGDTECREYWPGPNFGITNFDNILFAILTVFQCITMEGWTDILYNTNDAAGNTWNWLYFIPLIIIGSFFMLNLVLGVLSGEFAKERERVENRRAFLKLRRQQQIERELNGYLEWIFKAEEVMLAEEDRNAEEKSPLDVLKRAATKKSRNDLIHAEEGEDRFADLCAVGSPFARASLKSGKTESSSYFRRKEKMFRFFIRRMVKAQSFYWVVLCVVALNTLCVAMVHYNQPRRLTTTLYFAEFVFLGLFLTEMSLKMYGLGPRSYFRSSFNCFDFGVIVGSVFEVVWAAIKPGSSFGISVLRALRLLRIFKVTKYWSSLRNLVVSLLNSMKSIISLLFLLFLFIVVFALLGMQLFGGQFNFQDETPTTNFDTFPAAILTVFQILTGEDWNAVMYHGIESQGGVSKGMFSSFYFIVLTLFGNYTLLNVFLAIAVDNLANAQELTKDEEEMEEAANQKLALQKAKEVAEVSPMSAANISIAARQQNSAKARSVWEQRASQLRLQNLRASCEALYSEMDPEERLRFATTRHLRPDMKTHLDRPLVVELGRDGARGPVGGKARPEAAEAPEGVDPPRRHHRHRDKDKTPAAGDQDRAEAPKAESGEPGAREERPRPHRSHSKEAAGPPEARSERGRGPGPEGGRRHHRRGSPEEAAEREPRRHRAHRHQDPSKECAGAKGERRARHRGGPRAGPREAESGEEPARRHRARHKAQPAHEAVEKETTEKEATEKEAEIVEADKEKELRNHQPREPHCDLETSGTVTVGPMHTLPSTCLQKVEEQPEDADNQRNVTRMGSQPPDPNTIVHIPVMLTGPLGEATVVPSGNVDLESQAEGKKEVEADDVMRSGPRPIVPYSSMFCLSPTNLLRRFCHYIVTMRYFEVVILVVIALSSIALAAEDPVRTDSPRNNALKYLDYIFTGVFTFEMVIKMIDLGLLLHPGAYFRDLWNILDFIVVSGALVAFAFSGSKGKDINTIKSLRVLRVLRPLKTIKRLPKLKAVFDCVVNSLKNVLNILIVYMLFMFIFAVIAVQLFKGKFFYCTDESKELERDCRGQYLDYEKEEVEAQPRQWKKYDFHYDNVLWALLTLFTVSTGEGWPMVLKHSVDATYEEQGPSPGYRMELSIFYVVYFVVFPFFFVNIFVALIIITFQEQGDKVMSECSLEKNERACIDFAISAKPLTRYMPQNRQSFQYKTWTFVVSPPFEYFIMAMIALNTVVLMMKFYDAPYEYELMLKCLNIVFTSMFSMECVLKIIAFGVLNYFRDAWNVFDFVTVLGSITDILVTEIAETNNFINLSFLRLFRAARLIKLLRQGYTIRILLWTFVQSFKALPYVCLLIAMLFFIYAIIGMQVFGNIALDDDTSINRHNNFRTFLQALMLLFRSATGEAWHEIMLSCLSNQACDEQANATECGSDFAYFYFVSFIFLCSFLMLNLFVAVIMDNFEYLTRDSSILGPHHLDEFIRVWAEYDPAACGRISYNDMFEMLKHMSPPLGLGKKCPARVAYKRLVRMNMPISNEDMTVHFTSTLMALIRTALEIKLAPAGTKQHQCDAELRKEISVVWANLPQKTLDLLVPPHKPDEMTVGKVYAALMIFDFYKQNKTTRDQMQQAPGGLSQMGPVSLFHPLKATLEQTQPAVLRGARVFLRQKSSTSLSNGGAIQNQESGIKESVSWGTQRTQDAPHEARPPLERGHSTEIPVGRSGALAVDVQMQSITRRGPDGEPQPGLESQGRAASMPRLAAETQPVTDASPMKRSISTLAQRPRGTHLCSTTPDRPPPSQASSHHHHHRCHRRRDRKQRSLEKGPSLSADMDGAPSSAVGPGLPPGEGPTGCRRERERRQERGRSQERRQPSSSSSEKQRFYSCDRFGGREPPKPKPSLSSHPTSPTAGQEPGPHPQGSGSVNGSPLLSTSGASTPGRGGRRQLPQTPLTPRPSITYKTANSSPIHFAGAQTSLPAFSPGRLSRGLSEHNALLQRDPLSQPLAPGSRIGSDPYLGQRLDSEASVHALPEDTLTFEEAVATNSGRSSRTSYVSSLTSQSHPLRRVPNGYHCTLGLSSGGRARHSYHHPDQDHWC

[4] = molecular target: T2, class E calcium channels (192C cells) (Homo sapiens, UniProt Q15878); format: cell-based
T2 construct: expressed in transfected cells; host or cells: HEK 293 (192C cells)
T2 sequence (Q15878 whole entry): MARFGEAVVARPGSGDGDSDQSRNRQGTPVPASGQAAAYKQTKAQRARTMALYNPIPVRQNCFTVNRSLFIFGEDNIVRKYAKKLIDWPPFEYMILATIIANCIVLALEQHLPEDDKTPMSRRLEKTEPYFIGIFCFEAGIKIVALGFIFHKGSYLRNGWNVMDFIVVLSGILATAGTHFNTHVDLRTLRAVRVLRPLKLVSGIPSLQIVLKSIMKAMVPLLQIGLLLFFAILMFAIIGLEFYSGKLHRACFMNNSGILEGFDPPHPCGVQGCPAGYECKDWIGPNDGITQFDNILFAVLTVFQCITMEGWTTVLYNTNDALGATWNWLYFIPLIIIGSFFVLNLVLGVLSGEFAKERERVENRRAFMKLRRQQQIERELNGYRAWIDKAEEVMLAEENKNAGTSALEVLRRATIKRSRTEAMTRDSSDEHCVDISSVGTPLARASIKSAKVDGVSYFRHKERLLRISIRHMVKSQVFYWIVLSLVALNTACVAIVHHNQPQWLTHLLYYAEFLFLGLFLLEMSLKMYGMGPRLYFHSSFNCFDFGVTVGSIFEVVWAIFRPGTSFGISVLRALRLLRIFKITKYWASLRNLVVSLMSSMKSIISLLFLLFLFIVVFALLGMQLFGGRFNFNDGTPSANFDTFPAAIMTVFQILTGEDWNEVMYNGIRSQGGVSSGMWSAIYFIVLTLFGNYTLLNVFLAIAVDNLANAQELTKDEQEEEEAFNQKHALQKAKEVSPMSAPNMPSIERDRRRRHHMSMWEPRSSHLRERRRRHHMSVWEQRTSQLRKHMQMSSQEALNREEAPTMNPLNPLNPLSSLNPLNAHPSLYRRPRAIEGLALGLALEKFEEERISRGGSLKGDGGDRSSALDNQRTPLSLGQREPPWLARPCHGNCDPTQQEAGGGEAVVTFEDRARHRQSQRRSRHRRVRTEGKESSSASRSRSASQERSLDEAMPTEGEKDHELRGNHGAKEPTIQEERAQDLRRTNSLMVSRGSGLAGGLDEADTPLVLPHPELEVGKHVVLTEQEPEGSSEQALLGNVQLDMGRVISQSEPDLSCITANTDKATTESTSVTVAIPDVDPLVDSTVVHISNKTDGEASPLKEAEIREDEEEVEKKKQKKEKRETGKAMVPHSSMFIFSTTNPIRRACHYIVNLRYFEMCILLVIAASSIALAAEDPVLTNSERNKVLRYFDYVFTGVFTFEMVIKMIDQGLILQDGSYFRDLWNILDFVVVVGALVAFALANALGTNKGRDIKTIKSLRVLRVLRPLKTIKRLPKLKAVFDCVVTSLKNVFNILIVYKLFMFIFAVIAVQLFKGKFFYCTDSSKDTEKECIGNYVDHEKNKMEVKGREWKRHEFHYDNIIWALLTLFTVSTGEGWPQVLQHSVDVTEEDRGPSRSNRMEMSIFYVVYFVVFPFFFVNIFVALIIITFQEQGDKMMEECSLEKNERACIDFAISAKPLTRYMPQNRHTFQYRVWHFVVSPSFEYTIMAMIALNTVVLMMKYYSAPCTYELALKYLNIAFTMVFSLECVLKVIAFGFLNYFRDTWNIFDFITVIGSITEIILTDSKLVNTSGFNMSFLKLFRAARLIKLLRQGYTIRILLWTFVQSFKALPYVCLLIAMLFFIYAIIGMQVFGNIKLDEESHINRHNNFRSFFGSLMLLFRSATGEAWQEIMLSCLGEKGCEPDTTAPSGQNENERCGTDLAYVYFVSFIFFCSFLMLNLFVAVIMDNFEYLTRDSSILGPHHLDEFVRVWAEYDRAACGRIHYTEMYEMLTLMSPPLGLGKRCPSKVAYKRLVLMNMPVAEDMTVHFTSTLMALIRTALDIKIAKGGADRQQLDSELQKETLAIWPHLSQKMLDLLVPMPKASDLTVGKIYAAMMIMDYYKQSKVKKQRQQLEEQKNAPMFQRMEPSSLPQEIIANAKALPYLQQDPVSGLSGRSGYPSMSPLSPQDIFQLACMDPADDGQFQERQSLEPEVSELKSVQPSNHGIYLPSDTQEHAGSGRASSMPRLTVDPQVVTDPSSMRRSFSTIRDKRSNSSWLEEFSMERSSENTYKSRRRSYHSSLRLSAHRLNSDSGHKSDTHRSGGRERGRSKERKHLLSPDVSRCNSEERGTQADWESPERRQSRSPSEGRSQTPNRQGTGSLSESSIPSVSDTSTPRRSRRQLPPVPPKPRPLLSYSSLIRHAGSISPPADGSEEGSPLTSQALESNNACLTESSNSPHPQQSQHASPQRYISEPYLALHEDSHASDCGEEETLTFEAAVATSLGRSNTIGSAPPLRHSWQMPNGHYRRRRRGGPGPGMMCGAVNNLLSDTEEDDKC

DBA/2 mice = details: mouse, in vivo
class E calcium channels = class E calcium channels (Homo sapiens, UniProt Q15878); assay: Class E channel blocking, summary statements (two separate measures of channel blocking activity); format: cell-based; details: no method given
Chain of class E calcium channels (Q15878 whole entry): as above

[5] = molecular target: L-type calcium channels of GH3 cells (rat); assay: cell-based or functional assay

T1 sequence (Q00975 whole entry, looked up): as the sequence (Q00975 whole entry) above

CCCC[C@@H]1NC(=O)[C@H](CC(C)C)NC(=O)[C@H](CCCNC(=N)N)NC(=O)[C@H](CO)NC(=O)[C@@H]2CSSC[C@@H]3NC(=O)[C@H](CO)NC(=O)CNC(=O)[C@H]([C@@H](C)O)NC(=O)[C@H](CSSC[C@H](N)C(=O)N[C@@H](CCCCN)C(=O)NCC(=O)N[C@@H](CCCCN)C(=O)NCC(=O)N[C@@H](C)C(=O)N[C@@H](CCCCN)C(=O)N2)NC(=O)[C@H](CSSC[C@@H](C(N)=O)NC(=O)[C@H](CCCCN)NC(=O)CNC(=O)[C@H](CO)NC(=O)[C@H](CCCNC(=N)N)NC3=O)NC(=O)[C@H](CC(=O)O)NC(=O)[C@H](Cc2ccc(O)cc2)NC1=O [SNX-194]
IC50 [1]: 1 nM | inhibition of remaining transient depolarization evoked increase in internal calcium [1]: nearly completely inhibited

[Cd] [cadmium]
effect on class A (P/Q) barium current ([2]; concentration not given): completely blocked

HG-1 peptide
IC50, block of peak inward calcium current, whole cell patch clamp of S-3 cells [3]: 800 nM

SNX-629: synthetic truncated HG-1 peptide corresponding to HG 1 (7-41), SEQ ID NO: 15 (CRYMFGGCSVNDDCCPRLGCHSLFSYCAWDLTFSD)
concentration inhibiting class E channels relative to that of HG-1 in the same assay [4]: less than 20 times | ED50 for the anticonvulsant effect (DBA/2 mice): about 5 μg/mouse

hanatoxin (ECRYLFGGCKTTSDCCKHEGCKFRDKTCAWDFTFS; listed as Grammostola spatulata)
class E calcium channel antagonist activity (class E calcium channels): neither of these peptides exhibits class E calcium channel antagonist activity

omega-Aga-IIIA (from UniProt P33034 1-76) (peptide)
apparent IC50, depolarization evoked calcium signal at 60 seconds, INDO-1, GH3 cells (partial block) [5]: 1.5 nM

B1: Aga-IIIA (peptide)
peptide: SCIDIGGDCDGEKDDCQCCRRNGYCSCYSLFGYLKSGCKCVVGTSAEFQGICRRKARQCYNSDPDKCESHNKPKRR
IC50 ([1]; read-out: apparent IC50 for inhibition of depolarization evoked increase in internal calcium): 0.1 nM and ~0.1 nM | effect on class A (P/Q) barium current ([2]; 60 nM): partially blocked
